Data: article PMC4776307, “The Escherichia coli Cryptic Prophage Protein YfdR Binds to DnaA and Initiation of Chromosomal Replication Is Inhibited by Overexpression of the Gene Cluster yfdQ-yfdR-yfdS-yfdT” (Frontiers in Microbiology, 2016)

T1: biotin-tagged DnaA (bio-DnaA) (Escherichia coli, UniProt P03004 1-467, biotin (biotin-tagged))
T1 construct: DnaA, chromosomal replication initiator of Escherichia coli; also called bio-DnaA (Full); source: purified, as reported (Ishida et al., 2004)
T1 sequence (looked up): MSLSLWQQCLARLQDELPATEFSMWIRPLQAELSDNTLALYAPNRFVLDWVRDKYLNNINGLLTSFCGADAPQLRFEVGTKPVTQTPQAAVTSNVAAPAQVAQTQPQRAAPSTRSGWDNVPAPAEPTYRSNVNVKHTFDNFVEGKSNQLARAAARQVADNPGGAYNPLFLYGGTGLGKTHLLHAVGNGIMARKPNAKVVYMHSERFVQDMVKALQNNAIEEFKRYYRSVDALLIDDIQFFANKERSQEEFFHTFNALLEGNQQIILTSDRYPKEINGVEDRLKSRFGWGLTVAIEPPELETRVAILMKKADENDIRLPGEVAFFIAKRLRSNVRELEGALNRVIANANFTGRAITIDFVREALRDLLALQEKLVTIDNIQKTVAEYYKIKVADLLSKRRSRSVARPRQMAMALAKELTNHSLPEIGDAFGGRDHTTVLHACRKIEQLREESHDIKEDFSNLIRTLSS

B1: His-tagged YfdR (His-YfdR) (natural protein, Escherichia coli, UniProt P76514 1-178, looked up)
chain: MSFIKTFSGKHFYYDKINKDDIVINDIAVSLSNICRFAGHLSHFYSVAQHAVLCSQLVPQEFAFEALMHDATEAYCQDIPAPLKRLLPDYKRMEEKIDAVIREKYGLPPVMSTPVKYADLIMLATERRDLGLDDGSFWPVLEGIPATEMFNVIPLAPGHAYGMFMERFNDLSELRKCA
notes: YfdR of the cryptic prophage CPS-53 of Escherichia coli; amplified from pSSP with a forward primer that begins at the ATG of yfdR (nogu10) and nogu11, cloned NheI-EcoRI into pBAD/HisB; also called purified YfdR; source: E. coli MC1061 carrying pYfdR (pBAD/HisB), arabinose-induced, purified (Ni-NTA agarose)
B2: DiaA (natural protein, Escherichia coli, UniProt P66817 1-196, looked up)
chain: MQERIKACFTESIQTQIAAAEALPDAISRAAMTLVQSLLNGNKILCCGNGTSAANAQHFAASMINRFETERPSLPAIALNTDNVVLTAIANDRLHDEVYAKQVRALGHAGDVLLAISTRGNSRDIVKAVEAAVTRDMTIVALTGYDGGELAGLLGPQDVEIRIPSHRSARIQEMHMLTVNCLCDLIDNTLFPHQDD
notes: results and legends say only DiaA; also called His-DiaA; purified DiaA; source: purified
B3: DnaA (native, wild-type) (natural protein, Escherichia coli, UniProt P03004 1-467, looked up)
chain: T1 sequence (looked up)
notes: DnaA, chromosomal replication initiator of Escherichia coli; called native, intact, wild-type DnaA; Untagged; In the bio-oriC pull-downs it stood as DnaA complexes (multimers) formed on a biotin-tagged oriC DNA fragment; also called native DnaA; wild-type DnaA (WT); source: purified

How the values were obtained:
Settings in all cases: both partners purified
DnaA (native, wild-type) [1] = biological target: B3; test: pull-down; His-YfdR (10 pmol) with native DnaA or DnaA F46A in buffer R with 20 mM imidazole (20 uL; 2 mM ATP), on ice; Co2+ magnetic beads (Dynabeads); wash with 100 mM KCl and 50 mM imidazole; SDS-13% PAGE, silver staining; bead-bound DnaA subtracted
[2] = biological target: T1, biotin-tagged DnaA (bio-DnaA); test: pull-down; DiaA (10 pmol as monomer) with bio-DnaA (5 pmol) 5 min on ice, then purified His-YfdR for 10 min; streptavidin beads; SDS-PAGE, silver staining
[3] = biological target: T1, biotin-tagged DnaA (bio-DnaA); test: pull-down; bio-DnaA (5 pmol) first incubated with purified DiaA (10 pmol), then with protein extracts of cells carrying pQRST or pBAD18; streptavidin beads; SDS-PAGE, silver staining
DnaA (native, wild-type) [4] = biological target: B3; test: pull-down; DnaA (7.5 pmol) and bio-oriC (100 fmol) with His-DiaA (10 pmol as monomer) 5 min on ice, then His-YfdR for 10 min; streptavidin beads; SDS-15% PAGE, silver staining
DnaB-DnaC complex = biological target: T2, DnaB-DnaC complex (Escherichia coli, UniProt P0ACB0 1-471; P0AEF0 1-245); test: pull-down; DnaA (7.5 pmol) and bio-oriC (100 fmol) with DnaB-DnaC complex (7.5 pmol each) 5 min on ice, then His-YfdR for 10 min; streptavidin beads; SDS-12% PAGE, silver staining
T2 construct: DnaB replicative helicase of Escherichia coli (homohexamer); DnaC helicase loader of Escherichia coli; Formed beforehand from 7.5 pmol DnaB (as monomer) and 7.5 pmol DnaC; also called DnaB-DnaC complexes; source: DnaB and DnaC co-incubated on ice; copies: 6 +
T2 sequence (P0ACB0 whole entry, chain 1 of 2): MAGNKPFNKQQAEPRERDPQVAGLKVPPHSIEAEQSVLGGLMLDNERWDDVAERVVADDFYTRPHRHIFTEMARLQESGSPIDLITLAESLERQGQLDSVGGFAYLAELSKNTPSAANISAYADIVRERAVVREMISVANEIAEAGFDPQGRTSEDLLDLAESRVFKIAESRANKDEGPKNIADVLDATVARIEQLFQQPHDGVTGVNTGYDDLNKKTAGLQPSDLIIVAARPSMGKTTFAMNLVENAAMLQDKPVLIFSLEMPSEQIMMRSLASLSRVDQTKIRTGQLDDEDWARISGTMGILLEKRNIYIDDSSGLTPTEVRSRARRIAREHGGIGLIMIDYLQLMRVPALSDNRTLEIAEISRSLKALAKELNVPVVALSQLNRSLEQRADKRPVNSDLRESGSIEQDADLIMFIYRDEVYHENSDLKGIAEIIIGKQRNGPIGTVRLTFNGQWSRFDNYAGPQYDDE
T2 sequence (P0AEF0 whole entry, chain 2 of 2): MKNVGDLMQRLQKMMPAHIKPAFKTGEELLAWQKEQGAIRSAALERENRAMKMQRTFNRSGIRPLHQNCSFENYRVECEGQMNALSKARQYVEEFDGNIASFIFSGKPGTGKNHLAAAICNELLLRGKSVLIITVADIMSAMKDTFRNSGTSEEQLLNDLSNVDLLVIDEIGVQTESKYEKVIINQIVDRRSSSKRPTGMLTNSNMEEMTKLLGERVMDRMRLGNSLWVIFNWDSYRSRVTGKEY

## B1
DnaA (native, wild-type) [1]
  binding result: binds
[2]
  binding result: binds

## B2
[3]
  binding result: binds
DnaA (native, wild-type) [4]
  binding result: binds

## B3
DnaB-DnaC complex
  binding result: binds
